According to patent publication US20180163180A1, “METHOD OF ENHANCING SOMATIC CELL REPROGRAMMING WITH THE ACETYLLYSINE READER BRD3R” (THE UAB RESEARCH FOUNDATION, INC ., priority 2015, published 2018):

Key:
reprogramming cells = experiment: Mitotic shake-off of reprogramming cells; assay type: cell-based, human; details: day-4 reprogramming cells
Protocol: • Mitotic shake-off: Reprogramming cells were prepared in T75 flasks. On day 4 of reprogramming, 1 h before mitotic shake-off, replace spent media with fresh reprogramming media. Shake the flasks at 200 rpm for 1 min and collect the media containing the shake-off mitotic cells. Add new warmed media and incubate for 10 min. Repeat these shake-off collection 2 more times. Pool the cells and centrifuge at 1,000×g for 5 min. Count the cells collected.

BJ cells = experiment: Quantification of ESC-like (high-quality PSC morphology) colonies in reprogramming; assay type: cell-based, human; details: BRD3R reprogramming vs control reprogramming
Source text: When combined with the 3F combination (OCT4, SOX2 and KLF4), BRD3R gave rise to abundant TRA-1-60^+ clusters as early as day 6, whereas such clusters were infrequent events before day 10 in the control reprogramming (3F alone and 3F-GFP) (FIGS. 8A and 8E). On day 10, TRA-1-60^+ cells in BRD3R dishes developed into colonies while controls contained only small clusters of TRA-1-60^+ cells (FIG. 8E). The number of high-quality PSC colonies was also compared (well-defined colony border, homogeneous iPSCs within each reprogramming colony, smooth colony surface, and typical morphology of pluripotent cells (small cells, large nucleus, and close cell contact)), BRD3R reprogramming gave rise to at least 57× more colonies with PSC morphology than controls (FIGS. 9A and 9B). In addition, the iPSC colonies generally were larger in BRD3R dishes than in the control dishes (FIG. 1E, and FIGS. 8C, 8E, 9B, and 12C).
• Cell culture and reprogramming: Human fibroblast cells (BJ ATCC CRL-2522®) were cultured in fibroblast medium: DMEM, 10% heat-inactivated FBS, 0.1 mM 2-mercaptoethanol, 100 U/ml penicillin, 100 μg/ml streptomycin, 0.1 mM MEM NEAA and 4 ng/ml human bFGF. For reprogramming, seed BJ cells into 24-well plate at 2×10^4 cells/well. […]

[1] = target: T1, tetra-acetylated H4 (H4K5/8/12/16Ac) (Homo sapiens, UniProt P62805); experiment: Histone peptide pull-down assay; assay type: binding; details: lysates of human fibroblasts overexpressing BRD3R or BRD3; western with BRD3 antibody
T1 construct: Histone tails used for peptide pull-down experiments; Peg-biotin (chemical label); incubated with lysate of human BJ fibroblasts transduced with BRD3R or BRD3 virus
Protocol: (§1) • Histone peptide pull-down assay: H3 or H4 histone tails with 8 different acetylation modifications were evaluated for binding with BRD3R and BRD3. One unmodified tail for each histone was used for negative control.
(§2) Human BJ fibroblasts were transduced with BRD3 or BRD3R viruses. Three days post-transduction, cells were lysed by non-denaturing lysis buffer (20 mM HEPES pH 7.9, 150 mM NaCl, 1 mM MgCl2, 0.5% NP40, 10 mM NaF, 0.2 mM NaVO4, 10 mM β-glycerol phosphate, 5% glycerol, 1 mM DTT, 1 mM PMSF and protease inhibitors). Twenty μg of the cell lysates were incubated with 1 μg biotinylated peptide in 300 μl binding buffer (50 mM Tris pH 7.5, 150 mM NaCl, 0.1% NP-40, 1 mM PMSF and protease inhibitors) at 4° C. for overnight. The next day, 30 μl of Dynabeads M-280 Streptavidin was added into each sample (Invitrogen, 11205D). The mixture of proteins, antibodies and beads were further incubated with gentle rotation at 4° C. for 1 h. The beads were then washed with binding buffer three times. The bound proteins were resuspended in 60 μl of 2× SDS sample buffer. The pull-down proteins were analyzed by western using antibody of BRD3 (Proteintech, 11859-1-AP). Two micrograms of cell lysates were loaded as input control. For semi-quantification, band density was normalized to the corresponding inputs.

[2] = target: T2, biacetylated H3 (H3K9/14Ac) (Homo sapiens, UniProt P68431); experiment: Histone peptide pull-down assay; assay type: binding; details: lysates of human fibroblasts overexpressing the protein
T2 construct: Histone tails used for peptide pull-down experiments; expressed in transfected cells; host or cells: human BJ fibroblasts transduced with BRD3R lentivirus (lysate)
Protocol: as §1, §2

H3K9Ac = target: T3, H3K9Ac (Homo sapiens, UniProt P68431); experiment: Histone peptide pull-down assay; assay type: binding; details: lysates of human fibroblasts overexpressing the protein
T3 construct: Histone tails used for peptide pull-down experiments; expressed in transfected cells; host or cells: human BJ fibroblasts transduced with BRD3R lentivirus (lysate)
Protocol: as §1, §2

H4K5Ac = target: T4, H4K5Ac (Homo sapiens, UniProt P62805); experiment: Histone peptide pull-down assay; assay type: binding; details: lysates of human fibroblasts overexpressing the protein
T4 construct: Histone tails used for peptide pull-down experiments; Peg-biotin (chemical label); expressed in transfected cells; host or cells: human BJ fibroblasts transduced with BRD3R lentivirus (lysate)
Protocol: as §1, §2

H3K14Ac = target: T5, H3K14Ac (Homo sapiens, UniProt P68431); experiment: Histone peptide pull-down assay; assay type: binding; details: lysates of human fibroblasts overexpressing the protein
T5 construct: Histone tails used for peptide pull-down experiments; expressed in transfected cells; host or cells: human BJ fibroblasts transduced with BRD3R lentivirus (lysate)
Protocol: as §1, §2

binding to H4K5/8/12/16Ac peptide [1]: bound strongly
binding to H3K9/14Ac peptide [2]: bound very weakly
binding to H3K9Ac peptide (H3K9Ac): bound
binding to H4K5Ac peptide (H4K5Ac): weakly
binding to H3K14Ac peptide (H3K14Ac): bound
Substance: BRD3R: BRD3 with Reprogramming activity; 556 aa isoform of human BRD3 (AAH32124, SEQ ID NO: 47), encoded by cDNA L61
mitotic cells collected compared to controls (reprogramming cells): 2.43 ×
more colonies with PSC morphology than controls (BJ cells): at least 57 ×
